Patent US20250242020A1 (JUNO THERAPEUTICS, published 2025)

Assays:
[1] = biological target: recombinant human ROR1 extracellular domain with a C-terminal 6xHis tag (human) (UniProt Q01973); test: SPR (Biacore T200): scFv-mFc captured on anti-mouse IgG chip, ROR1 ECD 6xHis injected, multi-cycle kinetics, 1:1 model
[2] = biological target: recombinant human ROR1 extracellular domain with a C-terminal 6xHis tag (human) (UniProt Q01973); test: SPR (Biacore), scFv-mFc captured on an anti-mouse IgG chip, ROR1 ECD 6xHis injected at 183, 61.0, 20.33, 6.78 and 2.26 nM, multi-cycle kinetics, 1:1 Binding model, 25 °C
[3] = biological target: recombinant human ROR1 extracellular domain with a C-terminal 6xHis tag (human) (UniProt Q01973); test: SPR (Biacore), scFv-mFc captured on an anti-mouse IgG chip, ROR1 ECD 6xHis injected in a concentration series up to 183 nM, multi-cycle kinetics, 1:1 Binding model, 25 °C
[4] = biological target: T1, human ROR1 expressed on cells (human, UniProt Q01973 30-937); test: plasma membrane protein array: immunohistochemistry on cells overexpressing individual human membrane proteins
T1 construct: also called hROR1; K562-ROR1-TetOn
Experimental: (§1) Off-target binding was assessed based on a plasma membrane protein array. This chip-based platform contains over 4400 groups of cells genetically engineered to overexpress individual human extracellular membrane proteins that together represent over 75% of the human extracellular proteome. The panel also includes over 1000 tethered secreted protein targets. An scFv-Fc (scFv sequence set forth in SEQ ID NO:118) was generated and used for immunohistochemistry (IHC) against the cells in the array. Confirmation screening was performed.

[5] = biological target: T2, human ROR2 expressed on cells of the plasma membrane protein array (human, UniProt Q01974 34-943); test: plasma membrane protein array: immunohistochemistry with scFv-Fc on cells overexpressing individual human membrane proteins, with confirmation screening
T2 construct: whole, on cells; also called receptor tyrosine kinase-like orphan receptor 2
Experimental: as §1

recombinant human ROR1 extracellular domain with a C-terminal 6xHis tag (human), sequence (Q01973 other isoform, or with tags, fused parts or gaps): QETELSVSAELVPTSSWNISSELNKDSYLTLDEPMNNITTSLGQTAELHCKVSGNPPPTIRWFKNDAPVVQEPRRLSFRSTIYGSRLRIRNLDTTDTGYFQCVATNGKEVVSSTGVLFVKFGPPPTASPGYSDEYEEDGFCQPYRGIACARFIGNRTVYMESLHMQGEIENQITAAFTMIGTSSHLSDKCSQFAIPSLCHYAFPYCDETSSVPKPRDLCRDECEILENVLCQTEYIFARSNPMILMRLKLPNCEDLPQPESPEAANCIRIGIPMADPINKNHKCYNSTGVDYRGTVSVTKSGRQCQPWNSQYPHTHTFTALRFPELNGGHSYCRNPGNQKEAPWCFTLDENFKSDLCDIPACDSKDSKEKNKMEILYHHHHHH
T1 sequence (Q01973 30-937): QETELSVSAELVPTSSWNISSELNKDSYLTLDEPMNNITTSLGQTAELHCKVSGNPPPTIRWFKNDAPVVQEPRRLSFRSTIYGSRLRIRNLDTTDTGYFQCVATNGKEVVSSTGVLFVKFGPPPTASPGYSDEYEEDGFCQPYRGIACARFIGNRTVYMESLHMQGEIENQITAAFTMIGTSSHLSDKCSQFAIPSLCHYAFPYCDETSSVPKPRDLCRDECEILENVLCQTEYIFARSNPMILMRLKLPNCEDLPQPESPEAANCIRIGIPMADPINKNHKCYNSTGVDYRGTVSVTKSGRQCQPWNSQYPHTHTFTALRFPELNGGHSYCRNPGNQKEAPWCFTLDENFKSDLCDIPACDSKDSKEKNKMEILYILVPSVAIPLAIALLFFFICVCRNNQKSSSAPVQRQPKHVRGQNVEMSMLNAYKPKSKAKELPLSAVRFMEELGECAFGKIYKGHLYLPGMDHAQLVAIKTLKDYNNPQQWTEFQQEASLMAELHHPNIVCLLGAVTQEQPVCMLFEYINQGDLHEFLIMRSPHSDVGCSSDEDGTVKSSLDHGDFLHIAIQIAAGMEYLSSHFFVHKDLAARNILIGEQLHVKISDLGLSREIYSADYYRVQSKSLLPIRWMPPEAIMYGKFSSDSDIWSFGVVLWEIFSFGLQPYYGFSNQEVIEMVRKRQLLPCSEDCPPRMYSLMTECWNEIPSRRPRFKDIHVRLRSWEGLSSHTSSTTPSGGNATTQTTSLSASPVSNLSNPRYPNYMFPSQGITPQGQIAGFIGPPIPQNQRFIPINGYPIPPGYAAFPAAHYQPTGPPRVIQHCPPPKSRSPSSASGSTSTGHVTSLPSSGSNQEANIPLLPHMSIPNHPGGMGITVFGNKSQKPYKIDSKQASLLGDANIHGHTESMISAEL
T2 sequence (Q01974 34-943): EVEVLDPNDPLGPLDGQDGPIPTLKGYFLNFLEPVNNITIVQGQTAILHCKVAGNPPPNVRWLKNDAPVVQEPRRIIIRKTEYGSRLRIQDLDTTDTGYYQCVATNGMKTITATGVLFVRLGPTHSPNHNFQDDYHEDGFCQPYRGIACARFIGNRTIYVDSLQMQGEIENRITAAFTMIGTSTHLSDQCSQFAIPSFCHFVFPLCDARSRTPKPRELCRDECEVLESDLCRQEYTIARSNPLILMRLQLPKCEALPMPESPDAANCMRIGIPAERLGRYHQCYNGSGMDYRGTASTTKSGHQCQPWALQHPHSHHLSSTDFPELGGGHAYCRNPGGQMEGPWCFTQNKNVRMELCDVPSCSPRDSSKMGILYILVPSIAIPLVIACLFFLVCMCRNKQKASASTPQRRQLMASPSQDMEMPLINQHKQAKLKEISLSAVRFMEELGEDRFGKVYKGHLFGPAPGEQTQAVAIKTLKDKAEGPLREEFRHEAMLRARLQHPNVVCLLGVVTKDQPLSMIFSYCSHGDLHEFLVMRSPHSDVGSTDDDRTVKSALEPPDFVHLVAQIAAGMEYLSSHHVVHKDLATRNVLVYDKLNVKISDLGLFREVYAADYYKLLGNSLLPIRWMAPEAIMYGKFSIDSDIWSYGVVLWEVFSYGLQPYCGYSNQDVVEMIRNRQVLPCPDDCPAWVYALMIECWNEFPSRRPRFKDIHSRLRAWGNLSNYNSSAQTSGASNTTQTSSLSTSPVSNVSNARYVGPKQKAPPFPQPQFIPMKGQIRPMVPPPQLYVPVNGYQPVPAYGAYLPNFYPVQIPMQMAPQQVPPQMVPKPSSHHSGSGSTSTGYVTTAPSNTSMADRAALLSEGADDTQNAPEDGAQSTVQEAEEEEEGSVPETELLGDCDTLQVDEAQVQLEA

Kd [1] [nM]	koff [1] [s⁻¹]	kon [1] [M⁻¹ s⁻¹]	Kd [2] [nM]	koff [2] [s⁻¹]	kon [2] [M⁻¹ s⁻¹]	Kd [3] [nM]	koff [3] [s⁻¹]	kon [3] [M⁻¹ s⁻¹]	binding result [4]	binding result [5]	Binder
0.0957	3.94e-05	412000	0.0956	3.94e-05	412000						anti-ROR1 scFv ROR1-2 fused to murine IgG2a Fc (scFv-mFc) (Fc fusion, part only; not given: murine IgG2a Fc and junction, not shown: another chain or arm of the molecule; a dimerising Fc or GST) scFv: QLQLQESGPGLVKPSETLSLTCTVSGGSINSTTSYWAWIRQPPGKGLEWIGTIFYSGKTYNNPSLKSRVTMSVDTSKNHFSLKVNSVTAADTAVYYCARFDYGFHDAFDIWGQGTMVTVSSGGGGSGGGGSGGGGSEIVMTQSPATLSLSPGERATLSCRASQSITSDYLSWYQQKPGQAPRLLIYGASTRATGIPARFSGSGSGTDFTLTISSLQPEDFVVYYCQQDYNLYTFGQGTKLEIKR
0.924	1.08e-05	11700	0.924	1.08e-05	11700						anti-ROR1 scFv ROR1-3 fused to murine IgG2a Fc (scFv-mFc) (Fc fusion, part only; not given: murine IgG2a Fc and junction, not shown: another chain or arm of the molecule; a dimerising Fc or GST) scFv: QVQLVQSGAEVKKPGASVKVSCKASGYTFTSYGISWVRQAPGQGLEWMGWISAYNGNTKYAQKLQGRVTMTTDTSTSTAYMELRSLRSDDTAVYYCARDEDILTGYNYYGMDVWGQGTTVTVSSGGGGSGGGGSGGGGSQLVLTQSPSASASLGASVKLTCTLSSGHSSYAIAWHQQQPEKGPRYLMKLNSDGSHSKGDGIPDRFSGSSSGAERYLTISSLQSEDEADYYCQTWGTGIRVFGGGTKLTVLG
13.8	0.00022	16000	13.8	0.00022	16000						anti-ROR1 scFv ROR1-4 fused to murine IgG2a Fc (scFv-mFc) (Fc fusion, part only; not given: murine IgG2a Fc and junction, not shown: another chain or arm of the molecule; a dimerising Fc or GST) scFv: QVQLLQSGAEVKKPGASVKVSCKASGYTFTSYGISWVRQAPGQGLEWMGWISAYTGNTRYAQKLQGRVTMTTDTSTSTAYMELRSLRSDDTAVYYCAREEGATTDYDYYGMDVWGQGTAVTVSSGGGGSGGGGSGGGGSQLVLTQSPSASASLGASVKLTCTLSSGHSSYAIAWHQQQPEKGPRYLMKLNSDGSHSKGDGIPDRFSGSSSGAERYLTISSLQSEDEADYYCQTWGTGIRVFGGGTKLTVLG
0.942	0.000579	614000				0.942	0.000579	614000			reference R12 scFv fused to murine IgG2a Fc (scFv-mFc) (Fc fusion, part only; not given: murine IgG2a Fc and junction, not shown: another chain or arm of the molecule; a dimerising Fc or GST) scFv: QEQLVESGGRLVTPGGSLTLSCKASGFDFSAYYMSWVRQAPGKGLEWIATIYPSSGKTYYATWVNGRFTISSDNAQNTVDLQMNSLTAADRATYFCARDSYADDGALFNIWGPGTLVTISSGGGGSGGGGSGGGGSELVLTQSPSVSAALGSPAKITCTLSSAHKTDTIDWYQQLQGEAPRYLMQVQSDGSYTKRPGVPDRFSGSSSGADRYLIIPSVQADDEADYYCGADYIGGYVFGGGTQLTVTG
42	0.005	119000	42	0.005	119000						anti-ROR1 scFv ROR1-1 fused to murine IgG2a Fc (scFv-mFc) (Fc fusion, part only; not given: murine IgG2a Fc and junction, not shown: another chain or arm of the molecule; a dimerising Fc or GST) scFv: QVQLQESGPGLVKPSETLSLTCTVSGGSISNYYWSWIRQPAGKGLEWIGRIYTSGSTNYNPSLKSRVTMSVDTSKNQFSLKLSSLTAADTAIYYCARYYDILTGFFDYWGQGTLVTVSSGGGGSGGGGSGGGGSVIWMTQSPSLLSASTGDSVTISCRMSQDISSYLAWYQQKPGKAPELLIYAASSLQSGVPSRFSGSGSGTDFTLTISSLQSEDFATYYCQQYDSFPPTFGQGTKVEFKR
									binds	no binding	scFv-Fc of the binding domain of anti-ROR1 CAR-F (scFv SEQ ID NO:118), used on the plasma membrane protein array (Fc fusion, also called the scFv; not shown: Fc) QVQLQESGPGLVKPSETLSLTCTVSGGSISNYYWSWIRQPAGKGLEWIGRIYTSGSTNYNPSLKSRVTMSVDTSKNQFSLKLSSLTAADTAIYYCARYYDILTGFFDYWGQGTLVTVSSGGGGSGGGGSGGGGSVIWMTQSPSLLSASTGDSVTISCRMSQDISSYLAWYQQKPGKAPELLIYAASSLQSGVPSRFSGSGSGTDFTLTISSLQSEDFATYYCQQYDSFPPTFGQGTKVEFKR
